Source: patent US20240066131A1 (Protagonist Therapeutics, Inc., priority 2020, published 2024)
Like-named read-outs stand apart in the source and are kept apart here. Starred links: 1 amine or outer side, 2 acyl side, 3 side chain; linkers in the order of their positions; H or OH if unused. Non-standard residues stand in square brackets, D forms with d. Residues, ends and D or L forms follow the SMILES beside them. Groups on a side chain read outwards from the residue. No end group written: not given here. *: point of attachment. N_Butyl_Phe = CCCCN([C@@H](Cc1ccccc1)C(=O)[*:2])[*:1]; Ala(1H-tetrazol-5-yl) = N[C@@H](Cc1nnn[nH]1)C(=O)O; X14 = O=C(CN(CCC(c1ccccc1)c1ccccc1)[*:1])[*:2]; C18 diacid = O=C(O)CCCCCCCCCCCCCCCCC(=O)*; X8 = O=C([C@H](CCc1nn[nH]n1)N[*:1])[*:2]; Dip = N[C@H](C(=O)O)C(c1ccccc1)c1ccccc1; γGlu = O=C(O)[C@H](CCC(=O)[*:2])N[*:1]; His(τ-Me) = Cn1cnc(C[C@H](N)C(=O)O)c1; Palmitoyl = CCCCCCCCCCCCCCCC(=O)*; Myristoyl = CCCCCCCCCCCCCC(=O)*; β3hF = N[C@H](CC(=O)O)Cc1ccccc1; NMeL = CN[C@@H](CC(C)C)C(=O)O; NMeK = CN[C@@H](CCCCN)C(=O)O; Lauroyl = CCCCCCCCCCCC(=O)*; Isovaleryl = CC(C)CC(=O)*; AEEA = NCCOCCOCC(=O)O; NHBn = c1ccc(CN*)cc1; Propionyl = CCC(=O)*; Ahx = NCCCCCC(=O)O; βAla = NCCC(=O)O

T1: ferroportin (Homo sapiens, UniProt Q9NP59)
T1 sequence (Q9NP59 1-571): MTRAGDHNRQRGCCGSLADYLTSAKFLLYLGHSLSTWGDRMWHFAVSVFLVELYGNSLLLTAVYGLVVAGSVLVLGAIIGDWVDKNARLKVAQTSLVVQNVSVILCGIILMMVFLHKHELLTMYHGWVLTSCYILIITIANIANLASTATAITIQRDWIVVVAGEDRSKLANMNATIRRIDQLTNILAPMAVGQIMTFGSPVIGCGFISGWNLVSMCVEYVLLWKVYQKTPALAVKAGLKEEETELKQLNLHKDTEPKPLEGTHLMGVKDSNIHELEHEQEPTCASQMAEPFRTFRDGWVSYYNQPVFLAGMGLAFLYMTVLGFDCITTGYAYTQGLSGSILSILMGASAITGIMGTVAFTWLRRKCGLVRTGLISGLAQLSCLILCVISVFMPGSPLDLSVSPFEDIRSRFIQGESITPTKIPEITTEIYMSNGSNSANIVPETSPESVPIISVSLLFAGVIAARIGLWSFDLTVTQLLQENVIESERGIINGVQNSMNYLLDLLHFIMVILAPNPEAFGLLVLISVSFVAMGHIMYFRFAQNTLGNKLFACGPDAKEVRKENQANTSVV

T2: human ferroportin (SLC40A1) fused in frame with GFP, stably expressed in HEK293 cells (human, UniProt Q9NP59 1-571)
T2 sequence (looked up): T1 sequence (Q9NP59 1-571)


Tests used:
ferroportin = molecular target: T1, ferroportin; assay: FPN activity assay: internalization/degradation of ferroportin-GFP in stably transfected HEK293 cells (loss of GFP fluorescence); format: cell-based
Protocol: Following internalization, the ferroporin protein is degraded.
A retro inverse peptide is a peptide with a reversed sequence in all D amino acids. An example is that Hy-Glu-Thr-His-NH2 becomes Hy-DHis-DThr-DGlu-NH2. The EC50 of these reference compounds for ferroportin internalization/degradation was determined according to the FPN activity assay described above. These peptides served as control standards.

[1] = molecular target: T2, human ferroportin (SLC40A1) fused in …; assay: cell-based or functional assay
[2] = ferroportin-GFP HEK293 cells, compound incubated at least 18 hours, read-out: FPN IC50

FPN IC50 [1] [nM] | Molecule | other results
 | CC[C@H](C)[C@H](NC(=O)[C@H](C)NC(=O)[C@@H]1CCCN1C(=O)[C@@H](NC(=O)[C@H](Cc1cn(C)cn1)NC(=O)[C@@H](NC(=O)[C@H](CCc1nn[nH]n1)NC(=O)CC(C)C)[C@@H](C)O)C(c1ccccc1)c1ccccc1)C(=O)N[C@@H](CCCCNC(C)=O)C(=O)N[C@H](CC(=O)N[C@H](CCCCN)C(=O)N[C@@H](C)C(N)=O)Cc1ccccc1 [compound 40] (Isovaleryl-[X8]T[His(τ-Me)][Dip]PAIK(Ac)[β3hF][dK]A-NH2) | DC50 (ferroportin; Table 6A, read-out: FPN EC50): > 3000 nM
 | CCCCCCCCCCCCCCCC(=O)NCCCCCC(=O)NCCCC[C@H](NC(C)=O)C(=O)N[C@H](C(=O)N[C@@H](Cc1c[nH]cn1)C(=O)N[C@H](C(=O)N1CCC[C@H]1C(=O)N[C@@H](C)C(=O)N[C@H](C(=O)N[C@H](CCCCN)C(=O)N[C@H](CC(N)=O)Cc1ccccc1)[C@@H](C)CC)C(c1ccccc1)c1ccccc1)[C@@H](C)O [compound 201] (Ac-K([Ahx-Palmitoyl])TH[Dip]PAI[dK][β3hF]-NH2) | DC50 (ferroportin; [2]): > 3000 nM
 | CCCCCCCCCCCC(=O)NCCCCCC(=O)NCCCC[C@H](NC(=O)[C@@H](NC(=O)[C@H](C)NC(=O)[C@@H]1CCCN1C(=O)[C@H](Cc1ccccc1)NC(=O)[C@H](Cc1c[nH]cn1)NC(=O)[C@@H](NC(=O)[C@H](CCC(=O)O)NC(=O)CC(C)C)[C@@H](C)O)[C@@H](C)CC)C(=O)N[C@@H](Cc1ccccc1)C(=O)N[C@@H](CCC(=O)O)C(=O)N1CCC[C@H]1C(=O)N[C@@H](CCCNC(=N)N)C(=O)N[C@@H](CO)C(=O)N[C@@H](CCCCN)C(=O)NCC(=O)N[C@@H](C)C(=O)N[C@@H](CCCCN)C(N)=O [compound 243] (Isovaleryl-ETHFPAIK([Ahx-Lauroyl])FEPRSKGAK-NH2) | DC50 (ferroportin; [2]): 1070 nM
 | CCCCCCCCCCCCCCCC(=O)NCCCCCC(=O)NCCCC[C@H](NC(=O)[C@@H](NC(=O)[C@@H](NC(=O)[C@@H]1CCCN1C(=O)[C@@H](NC(=O)[C@H](Cc1c[nH]cn1)NC(=O)[C@@H](NC(=O)[C@H](Cc1nn[nH]n1)NC(=O)CC(C)C)[C@@H](C)O)C(c1ccccc1)c1ccccc1)[C@@H](C)CC)[C@@H](C)CC)C(=O)N[C@H](CC(N)=O)Cc1ccccc1 [compound 113] (Isovaleryl-[Ala(1H-tetrazol-5-yl)]TH[Dip]PIIK([Ahx-Palmitoyl])[β3hF]-NH2) | DC50 (ferroportin; Table 6A, read-out: FPN EC50): 86.8 nM
 | CCCCCCCCCCCCCCCC(=O)NCCCCCC(=O)NCCCC[C@H](NC(=O)[C@@H](NC(=O)[C@H](C)NC(=O)[C@@H]1CCCN1C(=O)CN(CCC(c1ccccc1)c1ccccc1)C(=O)[C@H](Cc1c[nH]cn1)NC(=O)[C@@H](NC(=O)[C@H](CCC(=O)O)NC(=O)CC(C)C)[C@@H](C)O)[C@@H](C)CC)C(=O)N[C@H](CC(N)=O)Cc1ccccc1 [compound 89] (Isovaleryl-ETH[X14]PAIK([Ahx-Palmitoyl])[β3hF]-NH2) | DC50 (ferroportin; read-out: FPN EC50, Table 6A): > 3000 nM
 | CC(C)CC(=O)N[C@@H](CC(C)C)C(=O)N[C@H](C(=O)N[C@@H](Cc1c[nH]cn1)C(=O)N[C@H](C(=O)N[C@@H](CCCCNC(=O)COCCOCCNC(=O)COCCOCCNC(=O)CC[C@H](NC(=O)CCCCCCCCCCCCCCCCC(=O)O)C(=O)O)C(=O)NCc1ccccc1)C(c1ccccc1)c1ccccc1)[C@@H](C)O [compound 227] (Isovaleryl-LTH[Dip]K([AEEA-AEEA-γGlu-C18 diacid])-NHBn) | DC50 (ferroportin; [2]): > 3000 nM
 | CCCCCCCCCCCCCCCC(=O)NCCCCCC(=O)NCCCC[C@H](NC(=O)C[C@H](Cc1ccccc1)NC(=O)[C@@H](CCCCN)NC(=O)[C@@H](NC(=O)[C@H](C)NC(=O)[C@@H]1CCCN1C(=O)[C@H](C)NC(=O)[C@H](Cc1c[nH]cn1)NC(=O)[C@@H](NC(=O)[C@H](CCC(=O)O)NC(=O)CC(C)C)[C@@H](C)O)[C@@H](C)CC)C(=O)N[C@H](CCCCN)C(=O)N[C@@H](C)C(N)=O [compound 151] (Isovaleryl-ETHAPAI[dK][β3hF]K([Ahx-Palmitoyl])[dK]A-NH2) | DC50 (ferroportin; Table 6B, read-out: FPN IC50): > 3000 nM
 | CCCCCCCCCCCCCCCC(=O)NCCC(=O)NCCC(=O)NCCCC[C@H](NC(=O)[C@@H](NC(=O)[C@H](C)NC(=O)[C@@H]1CCCN1C(=O)[C@@H](NC(=O)[C@H](Cc1c[nH]cn1)NC(=O)[C@@H](NC(=O)[C@H](CCC(=O)O)NC(=O)CC(C)C)[C@@H](C)O)C(c1ccccc1)c1ccccc1)[C@@H](C)CC)C(=O)N[C@H](CC(N)=O)Cc1ccccc1 [compound 99] (Isovaleryl-ETH[Dip]PAIK([βAla-βAla-Palmitoyl])[β3hF]-NH2) | DC50 (ferroportin; Table 6A, read-out: FPN EC50): 103 nM
 | CCCCCCCCCCCCCCCC(=O)NCCCCCC(=O)NCCCC[C@H](NC(=O)[C@@H](NC(=O)[C@H](CC(C)C)NC(=O)[C@@H]1CCCN1C(=O)[C@@H](NC(=O)[C@H](Cc1c[nH]cn1)NC(=O)[C@@H](NC(=O)[C@H](CCC(=O)O)NC(=O)CC(C)C)[C@@H](C)O)C(c1ccccc1)c1ccccc1)[C@@H](C)CC)C(=O)N(C)[C@@H](CC(C)C)C(N)=O [compound 140] (Isovaleryl-ETH[Dip]PLIK([Ahx-Palmitoyl])[NMeL]-NH2) | DC50 (ferroportin; Table 6A, read-out: FPN EC50): 32.4 nM
 | CCCCCCCCCCCCCC(=O)NCCCCCC(=O)NCCCC[C@H](NC(=O)[C@@H](NC(=O)[C@H](C)NC(=O)[C@@H]1CCCN1C(=O)[C@H](Cc1ccccc1)NC(=O)[C@H](Cc1c[nH]cn1)NC(=O)[C@@H](NC(=O)[C@H](CCC(=O)O)NC(=O)CC(C)C)[C@@H](C)O)[C@@H](C)CC)C(=O)N[C@@H](Cc1ccccc1)C(=O)N[C@@H](CCC(=O)O)C(=O)N1CCC[C@H]1C(=O)N[C@@H](CCCNC(=N)N)C(=O)N[C@@H](CO)C(=O)N[C@@H](CCCCN)C(=O)NCC(=O)N[C@H](C)C(N)=O [compound 246] (Isovaleryl-ETHFPAIK([Ahx-Myristoyl])FEPRSKG[dA]-NH2) | DC50 (ferroportin; [2]): 1070 nM
3680 | Isovaleryl-ETHFPAIK([γGlu-Myristoyl])FEPR[dS]-NH2 [Isovaleric Acid-E-T-H-F-P-A-I-[Lys(IsoGlu_C14_acid)]-F-E-P-R-[(D)Ser]-NH2] | 
718 | Isovaleryl-ETHFPAIK([γGlu-Myristoyl])FEPRSKGA[dK]-NH2 [Isovaleric Acid-E-T-H-F-P-A-I-[Lys(IsoGlu_C14_acid)]-F-E-P-R-S-K-G-A-[(D)Lys]-NH2] | 
4490 | Isovaleryl-ETHFPAIK([γGlu-C12 acid])FEPRSKGAK-NH2 [Isovaleric Acid-E-T-H-F-P-A-I-[Lys(IsoGlu_C12_acid)]-F-E-P-R-S-K-G-A-K-NH2] | 
> 3000 | Heptanoic_Acid-LTH[Dip]PK([Ahx-Palmitoyl])[N_Butyl_Phe] [Heptanoic_Acid-L-T-H-[Dpa]-P-[Lys(Ahx_Palm)]-N_Butyl_Phe] | 
218 | Propionyl-LTH[Dip]PK([Ahx-Palmitoyl])[N_Butyl_Phe] [[Propionic_acid]-L-T-H-[Dpa]-P-[Lys(Ahx_Palm)]-N_Butyl_Phe] | 
3380 | Cyclohexanoic_Acid-LTH[Dip]PK([Ahx-Palmitoyl])[N_Butyl_Phe] [Cyclohexanoic_Acid-L-T-H-[Dpa]-P-[Lys(Ahx_Palm)]-N_Butyl_Phe] | 
71 | Isovaleryl-[meL]TH[Dip]P[NMeK]([Ahx-Palmitoyl])-N_Butyl_Phe [Isovaleric Acid-meL-T-H-[Dpa]-P-NMe[Lys(Ahx_Palm)]-N_Butyl_Phe] | 
1020 | Octanoic_Acid-LTH[Dip]PK([Ahx-Palmitoyl])-N_Butyl_Phe [Octanoic_Acid-L-T-H-[Dpa]-P-[Lys(Ahx_Palm)]-N_Butyl_Phe] | 
3300 | Cyclohexanecarboxylic_Acid-LTH[Dip]PK([Ahx-Palmitoyl])[N_Butyl_Phe] [Cyclohexanecarboxylic_Acid-L-T-H-[Dpa]-P-[Lys(Ahx_Palm)]-N_Butyl_Phe] | 
1440 | Isovaleryl-LTH[Dip]PK([AEEA-AEEA-γGlu-C18 diacid])[N_Ethyl_Nap] [Isovaleric Acid-L-T-H-[Dpa]-P-[Lys(1PEG2_1PEG2_IsoGlu_C18_Diacid)]-N_Ethyl_Nap] | 
62.6 | Isovaleryl-LTH[Dip]P[NMeK]([Ahx-Palmitoyl])[N_Butyl_Phe] [Isovaleric Acid-L-T-H-[Dpa]-P-NMe[Lys(Ahx_Palm)]-N_Butyl_Phe] | 
5730 | Isovaleryl-ETHFPAIK([γGlu-Myristoyl])FEPRSKG[dA]-NH2 [Isovaleric Acid-E-T-H-F-P-A-I-[Lys(IsoGlu_C14_acid)]-F-E-P-R-S-K-G-[(D)Ala]-NH2] | 
222 | Isovaleryl-LTH[Dip]PK([γGlu-Palmitoyl])[N_Butyl_Phe] [Isovaleric Acid-L-T-H-[Dpa]-P-[Lys(IsoGlu_Palm)]-N_Butyl_Phe] | 
1040 | Isovaleryl-LTH[Dip]P[N_Butyl_Phe] [Isovaleric Acid-L-T-H-[Dpa]-P-N_Butyl_Phe] | 
> 3000 | Isovaleryl-LTH[Dip]K([Ahx-Palmitoyl])[N_Butyl_Phe] [Isovaleric Acid-L-T-H-[Dpa]-[Lys(Ahx_Palm)]-N_Butyl_Phe] | 
3310 | Isovaleryl-ETHFPAIK([γGlu-C10 acid])FEPRSKGAK-NH2 [Isovaleric Acid-E-T-H-F-P-A-I-[Lys(IsoGlu_C10_acid)]-F-E-P-R-S-K-G-A-K-NH2] | 
469 | Isovaleryl-LTH[Dip]PK([βAla-Palmitoyl])[N_Butyl_Phe] [Isovaleric Acid-L-T-H-[Dpa]-P-[Lys(bAla_Palm)]-N_Butyl_Phe] | 
